US20050163769A1 (AbbVie / Abbott, published 2005)
Each block holds one binder with its values, some of them ahead of it.

Experiments:
[1] = target: T1, recombinant soluble recombinant human α5β1 integrin-Fc fusion protein (human, UniProt P08648 42-995; P05556 21-728, limits assumed); experiment: competition ELISA: plate coated with human α5β1 integrin-Fc, unlabelled antibody titrated against biotinylated murine IIA1, streptavidin-HRP, O.D. 450
T1 construct: Coated on ELISA plates at 1.0 µg/ml; The construct's limits and the Fc are not described; not shown: Fc part
T1 sequence (P08648 42-995 limits assumed, chain 1 of 2): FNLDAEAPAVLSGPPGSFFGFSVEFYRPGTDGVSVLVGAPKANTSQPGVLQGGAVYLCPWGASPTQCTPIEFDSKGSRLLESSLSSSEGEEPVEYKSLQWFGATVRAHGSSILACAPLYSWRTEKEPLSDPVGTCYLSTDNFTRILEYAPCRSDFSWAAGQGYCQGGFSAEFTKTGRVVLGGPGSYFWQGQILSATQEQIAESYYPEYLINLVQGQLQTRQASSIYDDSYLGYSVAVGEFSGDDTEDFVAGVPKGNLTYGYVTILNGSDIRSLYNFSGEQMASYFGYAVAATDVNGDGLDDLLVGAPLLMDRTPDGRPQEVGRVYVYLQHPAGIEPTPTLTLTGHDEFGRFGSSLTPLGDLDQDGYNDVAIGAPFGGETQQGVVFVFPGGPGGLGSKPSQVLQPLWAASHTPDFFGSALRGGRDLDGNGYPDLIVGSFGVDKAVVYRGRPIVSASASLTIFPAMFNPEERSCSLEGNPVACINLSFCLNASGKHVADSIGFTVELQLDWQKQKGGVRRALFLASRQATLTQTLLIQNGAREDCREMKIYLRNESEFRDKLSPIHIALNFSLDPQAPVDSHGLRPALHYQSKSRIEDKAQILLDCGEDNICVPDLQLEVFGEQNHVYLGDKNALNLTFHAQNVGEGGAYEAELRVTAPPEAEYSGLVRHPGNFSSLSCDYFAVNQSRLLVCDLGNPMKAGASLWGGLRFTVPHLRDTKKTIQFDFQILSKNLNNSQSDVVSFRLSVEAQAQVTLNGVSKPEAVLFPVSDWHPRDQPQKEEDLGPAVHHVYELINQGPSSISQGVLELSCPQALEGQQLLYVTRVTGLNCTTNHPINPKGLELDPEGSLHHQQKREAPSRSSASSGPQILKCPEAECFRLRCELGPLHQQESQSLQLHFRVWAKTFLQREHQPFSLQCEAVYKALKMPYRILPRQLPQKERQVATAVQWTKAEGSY
T1 sequence (P05556 21-728 limits assumed, chain 2 of 2): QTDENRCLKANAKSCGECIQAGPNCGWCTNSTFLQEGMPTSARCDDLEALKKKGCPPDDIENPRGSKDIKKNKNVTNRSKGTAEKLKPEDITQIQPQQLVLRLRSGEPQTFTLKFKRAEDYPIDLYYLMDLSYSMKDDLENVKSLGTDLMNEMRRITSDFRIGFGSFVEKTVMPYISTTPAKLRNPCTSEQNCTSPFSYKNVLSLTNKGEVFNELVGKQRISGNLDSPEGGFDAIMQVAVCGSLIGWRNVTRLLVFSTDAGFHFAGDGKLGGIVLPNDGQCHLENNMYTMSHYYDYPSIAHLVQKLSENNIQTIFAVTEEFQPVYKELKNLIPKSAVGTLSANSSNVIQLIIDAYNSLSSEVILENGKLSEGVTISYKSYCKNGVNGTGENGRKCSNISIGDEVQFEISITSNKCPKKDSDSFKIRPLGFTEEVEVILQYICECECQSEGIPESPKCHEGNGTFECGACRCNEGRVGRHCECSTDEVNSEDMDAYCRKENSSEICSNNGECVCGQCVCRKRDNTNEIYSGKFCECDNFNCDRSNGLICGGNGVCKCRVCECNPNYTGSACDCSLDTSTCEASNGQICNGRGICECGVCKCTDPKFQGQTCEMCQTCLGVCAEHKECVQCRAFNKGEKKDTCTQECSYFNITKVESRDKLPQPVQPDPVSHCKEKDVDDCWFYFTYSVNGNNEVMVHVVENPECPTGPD
Method: (§1) Wells of 96-well ELISA plates (Nunc-Immuno MaxiSorp plate, NalgeNunc, Naperville, Ill.) were coated with 100 μl of 1.0 μg/ml recombinant soluble recombinant human α5β1 integrin-Fc fusion protein in 0.2 M sodium carbonate-bicarbonate buffer (pH 9.4) overnight at 4° C. After washing with Wash Buffer (PBS containing 0.1% Tween 20), wells were blocked with 200 μl of Superblock Blocking Buffer (Pierce) for 30 min and then washed with Wash Buffer. A mixture of biotinylated murine IIA1 (0.1 μg/test) and competitor antibody (duplicates of serial 3-fold dilutions of competitior antibodies starting at 5 mg/ml) in ELISA Buffer (PBS containing 1% BSA and 0.1% Tween 20) was applied to ELISA plates in a final volume of 100 μl per well. ELISA plates were incubated for 1 hr at room temperature and the wells were washed with Wash Buffer. Then, […] of 1/1,000-diluted HRP-conjugated streptavidin (Pierce, Rockford, Ill.) in ELISA Buffer was applied to each well. After incubating for 0.5 hr at room temperature and washing with Wash Buffer, 100 μl of TMB substrate was added to each well. Absorbance was read at 450 nm using a VERSAmax microplate reader (Molecular Devices, Menlo Park, Calif.). Final competitor concentration in the reaction was plotted versus absorbance at 450 nm.

[2] = target: T1, recombinant soluble recombinant human …; experiment: competition ELISA on coated α5β1 integrin-Fc; competitor: biotinylated IIA1
Method: as §1

AAB1/B2Fc [3] = target: T2, AAB1/B2Fc; experiment: SPR (BIAcore), Fab immobilized by amine coupling, AAB1/B2Fc as analyte, 24° C
T2 construct: Analyte in the BIAcore experiment
Method: (§2) Affinities between AAB1/B2Fc and IIA1, M200 or F200 were analyzed using BIAcore 3000 and 2000 (BIAcore, Sweden). IIA1, M200 or F200 was immobilized on the Pioneer F 1 chip using standard amine coupling kit (BIAcore). Surface plasmon resonance was measured at a flow rate of 50 ul/min at 24° C. Injection of AAB1/B2Fc (association phase) occurs over 180 seconds. Dissociation was subsequently monitored over 3 hours. Kinetics of binding were calculated from data acquired at five different concentrations of analyte (320 nM, 160 nM, 80 nM, 40 nM, 20 nM), using the BIAevaluation program. Double-referencing was applied to eliminate responses from reference surface and buffer only control. KD was obtained by simultaneously fitting the association and dissociation phases of the sensorgram from the analyte concentration series.

AAB1/B2Fc [4] = target: T2, AAB1/B2Fc; experiment: SPR (BIAcore), antibody immobilized by amine coupling, AAB1/B2Fc as analyte, 24° C
Method: as §2

- IC50 (read off the curve) [1]: ~0.02 µg
- IC50 [2]: 79.1 µg/mL
B1: IIA1, mouse anti-human α5β1 integrin antibody (antibody, V domains shown)
VH: QVQLKESGPGLVAPSQSLSITCTISGFSLTDYGVHWVRQPPGKGLEWLVVIWSDGSSTYNSALKSRMTIRKDNSKSQVFLIMNSLQTDDSAMYYCARHGTYYGMTTTGDALDYWGQGTSVTVSS
VL: QIVLTQSPAIMSASLGERVTMTCTASSSVSSNYLHWYQQKPGSAPNLWIYSTSNLASGVPARFSGSGSGTSYSLTISSMEAEDAATYYCHQYLRSPPTFGGGTKLEIKR
notes: Mouse monoclonal antibody (Pharmingen); also called murine IIA1; M100

- Kd (AAB1/B2Fc [3]): 0.332 nM
B2: F200, Fab fragment of M200 (Fab, V domains shown)
VH: B1 VH
VL: B1 VL
notes: Made by papain digestion of M200 IgG

- IC50 (read off the curve) [1]: ~0.02 µg
- Kd (AAB1/B2Fc [4]): 0.367 nM
- IC50 [2]: 106 µg/mL
B3: M200 chimeric anti-α5β1 integrin antibody (antibody, human IgG4, kappa, V domains shown)
VH: B1 VH
VL: B1 VL
notes: Mouse/human chimeric IgG4/kappa; also called 200-M; 200-4 EOS

- IC50 (read off the curve) [1]: ~0.02 µg
- IC50 [2]: 132 µg/mL
B4: HuM200, humanized M200 with IgG4 constant region (antibody, V domains shown)
VH: EVQLVESGGGLVQPGGSLRLSCAASGFSLTDYGVHWVRQAPGKGLEWLVVIWSDGSSTYNSALKSRMTISKDNAKNTVYLQMNSLRAEDTAVYYCARHGTYYGMTTTGDALDYWGQGTLVTVSS
VL: EIVLTQSPATLSLSPGERATLSCTASSSVSSNYLHWYQQKPGQAPRLLIYSTSNLASGVPARFSGSGSGTSYTLTISSLEPEDFAVYYCHQYLRSPPTFGGGTKVEIKR
notes: Humanized IgG4; also called HuM200-G4; huM200-G4

- IC50 (read off the curve) [1]: ~0.02 µg
- IC50 [2]: 103 µg/mL
B5: HuM200-g2 m3G, humanized M200 with IgG2 constant region (antibody, V domains shown)
VH: B4 VH
VL: EIVLTQSPATLSLSPGERATLSCTASSSVSSNYLHWYQQKPGQAPRLLIYSTSNLASGVPARFSGSGSGTSYTLTISSLEPEDFAVYYCHQYLRSPPTFGGGTKVEIK
notes: Same variable domains as HuM200 with a constant region of IgG2
